According to the supplement of paper PMC9170038:

Test system: MS2 coat protein
Assay: apparent KD of MS2 coat protein; designed switch direction (-1 OFF switch, 1 ON switch): -1; higher = weaker reporter binding
Outline: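 Stalled E. coli RNA polymerase transcribed designed RNA switches on Illumina chips, which were then titrated with SNAP-549-labelled MS2 coat protein, doubling from 0.7 or 1.5 nM to 3 µM. Steps lasted from 0.8–1.5 h at the lowest concentration to 10–20 min at the highest. The apparent KD is each design's median over clusters of curve-fitted normalised fluorescence.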

[1] = input ligand: microRNA oligo, concentration not stated
[2] = Eterna round: R95, input ligand: FMN 200 uM
[3] = Eterna round: R95, input ligand: microRNA oligo, concentration not stated
[4] = Eterna round: R95, input ligand: none

Sequence | apparent KD of MS2 coat protein (input ligand: FMN 200 uM) [nM] | apparent KD of MS2 coat protein [1] [nM] | apparent KD of MS2 coat protein (input ligand: none) [nM] | apparent KD of MS2 coat protein [3] [nM] | further results
CUGCUCCGUGUAGGAUAUGCGCGCACCCAACGCGCAGAAGGACAUGAGGAUCACCCAUGUAUGUUAUUAUCACGUGAGGCGCAG [Design 34] (Eterna round: R96, puzzle: Exclusion NG 1) | 28.8 | 14.4 | 17.7 |  | 
CUGCUCCGUGUAGGAUAUGCGCGCACCCACCGCGCAGAAGGACAUGAGGAUCACCCAUGUAUGUUAUUAUCACGUGAGGCGCGG [Design 36] (Eterna round: R96, puzzle: Exclusion NG 1) | 31.9 | 17.7 | 33.1 |  | 
CUGGACCCGGUAGGAUAUAUUGUGGGCGGGCGUGGAACGACAUGAGGAUCACCCAUGUGAUUGAGGUAGAAGGGCCGAGAGGUC [Excl-NG2-LRO19] (Eterna round: R96, puzzle: Exclusion NG 2) | 43.2 | 31.2 | 42.9 |  | 
CUGGUCCGAGGAUAUAUUAAGUGAUACAUGAGGAUCACCCAUGUAAUUUGAUGGAUAUAAAUAGAAGGCGGACUAG [Mat - Exclusion 5 - JL mod - D43] (puzzle: Exclusion 5) |  |  |  | 37.1 | apparent KD of MS2 coat protein [2]: 59.8 nM; apparent KD of MS2 coat protein [4]: 43.8 nM
CUGGUCCGAGGAUAUAUUAUGUGAAACAUGAGGAUCACCCAUGUAAUAUGAUGGAUGAAAAUAGAAGGCGGACUAG [Mat - Exclusion 5 - JL mod - D30] (puzzle: Exclusion 5) |  |  |  | 43.5 | apparent KD of MS2 coat protein [2]: 36.2 nM; apparent KD of MS2 coat protein [4]: 61 nM
CUGGUUGUCGAGGAUAUGCACCAGCUCACUGACGCAGAAGGCGACACAUGAGGAUCACCCAUGUCGGUUCGCGU [salish99_ex6_r004_436] (Eterna round: R97, puzzle: Exclusion 6) | 30.7 |  | 28.2 |  | 
CUGUUUUUCGCAGGAUAUGCUUCUCCUUUAUUAGCAGAAGGGCGUUAAACAUGAGGAUCACCCAUGUAUGGUAAUGACAUUUUC [JR_ExcNG1_Sub061] (Eterna round: R96, puzzle: Exclusion NG 1) | 98.3 | 18.2 | 24.3 |  | 
CUUAAGUUAGGAUAUGCGCUACGGAAUCGUGGUUAUAGAUAGCAGAAGGAACUUGAGGAUCACCCAAGUAAAUA [Reerored] (Eterna round: R97, puzzle: Exclusion 4) | 116 |  | 137 |  | 
CUUAUGUGAGGAUAUGGUGUUGGCCACAGGAAAAAGAUCCUCCAGAAGGCACAUGAGGAUCACCCAUGUAGUGA [Jolly's Folly 30 - Jieux - Exclusion 4] (Eterna round: R96, puzzle: Exclusion 4) | 220 | 54.5 | 57.2 |  | 
CUUCGACAUGAGGAUCACCCAUGUCAGGAUAUUGUUUAUCUGGUGUUGUCCAGAUAUGCAAGAAGGGAUGUGUG [LRO-Excl1-04] (puzzle: Exclusion 1) |  |  |  | 33.8 | 
CUUCGUAUAGAGGAUAUAGGUUACCUCGGUAUCCUAGAAGGCUGUACAUGAGGAUCACCCAUGUACUUCAGAUC [Exclusion 6 - B - 13:b] (puzzle: Exclusion 6) |  |  |  | 12.7 | 
CUUCGUUGCAAGGAUAUGUGAACGAAGAGGGAUACAGAAGGUGCUACAUGAGGAUCACCCAUGUGGGUUGAUUU [Eternabot (L1) Solution 48] (Eterna round: R97, puzzle: Exclusion 6) | 363 |  | 226 |  | 
CUUCUCUCAUGGAAUCCUGACAUGAGGAUCACCCAUGUUGCUGAGGAUAUCCAGCGCUACGGCGCGGAGAAGGCGGCUCUUAAA [Enties] (Eterna round: R96, puzzle: Exclusion NG 3) | 12.9 | 10 | 17.2 |  | 
CUUGUACAUGAGGAUCACCCAUGUUAGGAUAUCUCGCCGUCGGCUUGCCGACGGUAUUAGAGAAGGGACAAGGG [JL Tixe mod 7] (puzzle: Exclusion 1) |  |  |  | 18.6 | 
CUUGUUUAUGUAGGAUAUACAUGAGGAUCACCCAUAGAAGGACAUGAGGAUCACCCAUGUAUUGCGGUCUGCGUUCAGAUCGCA [salish99_ExNG1_r04_101] (Eterna round: R96, puzzle: Exclusion NG 1) | 337 | 298 | 335 |  | 
CUUGUUUAUGUAGGAUAUGCCUGGCGUGCCUUUGCAGAAGGACAUGAGGAUCACCCAUGUAACAUGAGGCUCACCCAUGUCGCC [salish99_ExNG1_r04_107] (Eterna round: R96, puzzle: Exclusion NG 1) | 142 | 94.8 | 153 |  | 

Sequence | apparent KD of MS2 coat protein (input ligand: FMN 200 uM) [nM] | apparent KD of MS2 coat protein [1] [nM] | apparent KD of MS2 coat protein (input ligand: none) [nM] | apparent KD of MS2 coat protein [3] [nM] | further results
CUUGUUUAUGUAGGAUAUGCCUGGCGUGCCUUUGCAGAAGGACAUGAGGAUCACCCAUGUAUUGCGGUCUGCGUUCAGAUCGCC [salish99_ExNG1_r4_042] (Eterna round: R96, puzzle: Exclusion NG 1) | 34.9 | 18.9 | 22 |  | 
CUUGUUUAUGUGAGGAUAUACUGUUAGUAUAGUUUGUAGAAGGUACAUGAGGAUCACCCAUGUUUAUUACUCUU [JR_BME4_Sub046] (puzzle: Brourd's mod of Exclusion 4) |  |  |  | 11.9 | 
CUUUAGACAGGAUAUACUUCCGUGGUCGUAGAGUUACACAGACAUGAGGAUCACCCAUGUAGAAGGGUCAAGCU [Eternabot (L2) Solution 94] (Eterna round: R97, puzzle: Exclusion 2) | 76.2 |  | 84.7 |  | 
CUUUGACAUGAGGAUCACCCAUGUGAGGAUAUGAUGCGAUCGUCGAAAGACGAUAGCAUCAGAAGGCACAUAUG [Fiskers Ex 1 - 7] (puzzle: Exclusion 1) |  |  |  | 92.6 | 
CUUUUAAAGCAACAUCAGCACAUGAGGAUCACCCAUGUGGCGUCCCGACUGUGCACGAUUGCUCGUCUUGACUGUAU [Eternabot (L1) Solution 25] (Eterna round: R97, puzzle: Sensor, turn-off variant 1) | 179 |  | 185 |  | 
CUUUUGGCAGGAUAUGCUUUUUUUGACAUGAGGAUCACCCAUGUGAUGCAGUUUGGGUUUGCAGAAGGGCCUGAGU [JR_E5_Sub035] (puzzle: Exclusion 5) |  |  |  | 101 | 
CUUUUGUGAGGAUAUCAGGUGUGCUAGCGUACUGGUACAUCUGAGAAGGCACAUGAGGAUCACCCAUGUUCCUU [JL-ex4-3.18 Brourd mod] (puzzle: Exclusion 4) |  |  |  | 13.5 | 
CUUUUGUGAGGAUAUCAGUAGUAAAAAAAUAAAAUUACUACUGAGAAGGUACAUGAGGAUCACCCAUGUUCCUC [salish99_ex4_r3_031] (puzzle: Exclusion 4) |  |  |  | 15.1 | 
CUUUUGUGAGGAUAUCAGUAGUAAAAAAUUAAAAUUACUACUGAGAAGGCACAUGAGGAUCACCCAUGUUCCUC [salish99_ex4_r3_021] (puzzle: Exclusion 4) |  |  |  | 37.7 | 
CUUUUGUGAGGAUAUCAGUAGUAAUACAAUAGUAUUACUACUGAGAAGGUACAUGAGGAUCACCCAUGUUCCUC [Ex4 344 Omei mod 4] (puzzle: Exclusion 4) |  |  |  | 17.9 | 
CUUUUGUGAGGAUAUUAGUAGUAAAUAAUUAAAAUUACUACUGAGAAGGCACAUGAGGAUCACCCAUGUUCCUC [salish99_ex4_r3_056] (Eterna round: R96, puzzle: Exclusion 4) | 489 | 33.2 | 37.4 |  | 
CUUUUGUGAGGAUAUUAGUAGUAAAUAAUUAAAAUUACUACUGAGAAGGCACAUGAGGAUCACCCAUGUUCCUC [salish99_ex4_r3_056] (puzzle: Exclusion 4) |  |  |  | 35.2 | 
CUUUUGUGAGGAUAUUAGUAGUAAAUGAAUAAAAUUAUUACUGAGAAGGCACAUGAGGAUCACCCAUGUUCCUU [Mat - Exclusion 4 - Eli Mod - D19] (Eterna round: R97, puzzle: Exclusion 4) | 83.6 |  | 14.6 |  | 
GAAAAGAUAGGAUAUACAAGAAGAAAAGAAAAGAAAAGAAAACAUGAGGAUCACCCAUGUAGAAGGAUCAAAAG [Default title] (puzzle: Exclusion 2) |  |  |  | 13.5 | apparent KD of MS2 coat protein [2]: 15 nM; apparent KD of MS2 coat protein [4]: 15.5 nM
GAAAAGCAUGUGAGGAUAUGCACACCGGACCGGUGGUAGAAGGCACAUGAGGAUCACCCAUGUGACCAAGAAUA [BmEX4 A.4] (Eterna round: R97, puzzle: Brourd's mod of Exclusion 4) | 19.7 |  | 10.6 |  | 
GAAAAGGUAGGAUAUACGAAAAAAAAGUGUAGAAAAAAAACACAUGAGGAUCACCCAUGUAGAAGGACCAAAAG [salish99_ex2_r3_069] (puzzle: Exclusion 2) |  |  |  | 34.8 | apparent KD of MS2 coat protein [2]: 27 nM; apparent KD of MS2 coat protein [4]: 32.6 nM
